US20190352420A1 (Boehringer Ingelheim, published 2019)

T1: cell-bound CD73 (human, UniProt P21589 27-549)
T1 sequence (looked up): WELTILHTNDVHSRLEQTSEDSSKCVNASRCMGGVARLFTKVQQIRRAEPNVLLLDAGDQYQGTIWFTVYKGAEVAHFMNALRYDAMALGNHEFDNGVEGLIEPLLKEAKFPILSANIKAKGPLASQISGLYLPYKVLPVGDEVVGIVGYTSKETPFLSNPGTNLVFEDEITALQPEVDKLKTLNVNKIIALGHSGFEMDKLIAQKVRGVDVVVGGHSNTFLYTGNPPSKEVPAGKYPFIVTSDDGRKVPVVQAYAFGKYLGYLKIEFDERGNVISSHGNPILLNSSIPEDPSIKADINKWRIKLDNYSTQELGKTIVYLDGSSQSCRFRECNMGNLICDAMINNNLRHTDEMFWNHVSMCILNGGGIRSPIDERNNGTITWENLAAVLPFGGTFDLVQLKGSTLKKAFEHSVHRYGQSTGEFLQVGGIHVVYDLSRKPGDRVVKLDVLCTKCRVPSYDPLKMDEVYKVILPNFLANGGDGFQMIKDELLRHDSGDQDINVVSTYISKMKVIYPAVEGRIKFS

T2: non-cell-bound CD73 (human, UniProt P21589 27-549, limits assumed)
T2 sequence (looked up): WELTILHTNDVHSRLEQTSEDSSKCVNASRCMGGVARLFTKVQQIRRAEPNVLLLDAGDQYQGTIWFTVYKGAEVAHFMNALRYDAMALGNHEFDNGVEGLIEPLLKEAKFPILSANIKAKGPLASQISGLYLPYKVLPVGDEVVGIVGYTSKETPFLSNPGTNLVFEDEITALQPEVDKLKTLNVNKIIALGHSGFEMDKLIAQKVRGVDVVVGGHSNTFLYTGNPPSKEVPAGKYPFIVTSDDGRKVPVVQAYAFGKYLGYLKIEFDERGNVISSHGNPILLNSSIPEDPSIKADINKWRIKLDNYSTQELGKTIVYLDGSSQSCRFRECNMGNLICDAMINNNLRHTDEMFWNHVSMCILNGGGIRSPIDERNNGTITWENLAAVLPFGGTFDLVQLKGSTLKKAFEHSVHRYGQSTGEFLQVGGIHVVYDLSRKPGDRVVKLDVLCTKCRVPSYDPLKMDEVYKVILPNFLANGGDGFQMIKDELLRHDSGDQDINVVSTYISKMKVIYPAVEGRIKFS

T3: human CD73-His (human, UniProt P21589 27-549)
T3 construct: extracellular domain; The SPR analyte is only called 'human CD73-His' (non-covalent dimeric antigen); also called HuCD73 His tagged; HuCD73his20170303
T3 sequence: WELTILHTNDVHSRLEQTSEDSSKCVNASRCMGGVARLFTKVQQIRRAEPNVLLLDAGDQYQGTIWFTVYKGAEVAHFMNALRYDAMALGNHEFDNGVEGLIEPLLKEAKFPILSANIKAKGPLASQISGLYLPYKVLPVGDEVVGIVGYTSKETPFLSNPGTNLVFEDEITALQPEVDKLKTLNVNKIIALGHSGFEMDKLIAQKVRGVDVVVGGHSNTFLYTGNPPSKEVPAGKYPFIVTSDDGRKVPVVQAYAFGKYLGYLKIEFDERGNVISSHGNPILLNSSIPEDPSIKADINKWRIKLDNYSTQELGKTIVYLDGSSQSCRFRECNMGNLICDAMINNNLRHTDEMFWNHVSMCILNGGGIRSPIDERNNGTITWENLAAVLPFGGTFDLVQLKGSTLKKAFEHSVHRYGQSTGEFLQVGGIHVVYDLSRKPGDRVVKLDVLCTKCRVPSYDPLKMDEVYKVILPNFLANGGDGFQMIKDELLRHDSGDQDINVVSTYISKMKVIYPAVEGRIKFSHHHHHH

T4: mouse CD73 (mouse, UniProt Q61503 29-551, limits assumed)
T4 construct: also called murine CD73
T4 sequence (looked up): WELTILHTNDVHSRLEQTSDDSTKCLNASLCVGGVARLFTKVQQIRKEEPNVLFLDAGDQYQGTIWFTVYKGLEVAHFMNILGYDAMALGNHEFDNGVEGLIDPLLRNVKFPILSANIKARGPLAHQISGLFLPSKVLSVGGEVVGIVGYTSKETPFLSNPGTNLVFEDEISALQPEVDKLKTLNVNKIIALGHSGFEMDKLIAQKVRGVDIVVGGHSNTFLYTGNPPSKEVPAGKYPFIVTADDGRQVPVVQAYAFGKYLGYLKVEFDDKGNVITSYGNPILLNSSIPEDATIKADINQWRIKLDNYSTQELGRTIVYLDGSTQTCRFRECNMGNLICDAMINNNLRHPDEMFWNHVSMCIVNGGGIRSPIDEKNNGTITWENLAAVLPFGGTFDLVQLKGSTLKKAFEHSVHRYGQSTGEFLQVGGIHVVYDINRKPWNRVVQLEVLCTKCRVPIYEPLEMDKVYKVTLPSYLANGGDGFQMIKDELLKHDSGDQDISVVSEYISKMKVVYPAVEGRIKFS

T5: recombinant human CD73 protein (human, UniProt P21589 27-549, limits assumed)
T5 sequence (looked up): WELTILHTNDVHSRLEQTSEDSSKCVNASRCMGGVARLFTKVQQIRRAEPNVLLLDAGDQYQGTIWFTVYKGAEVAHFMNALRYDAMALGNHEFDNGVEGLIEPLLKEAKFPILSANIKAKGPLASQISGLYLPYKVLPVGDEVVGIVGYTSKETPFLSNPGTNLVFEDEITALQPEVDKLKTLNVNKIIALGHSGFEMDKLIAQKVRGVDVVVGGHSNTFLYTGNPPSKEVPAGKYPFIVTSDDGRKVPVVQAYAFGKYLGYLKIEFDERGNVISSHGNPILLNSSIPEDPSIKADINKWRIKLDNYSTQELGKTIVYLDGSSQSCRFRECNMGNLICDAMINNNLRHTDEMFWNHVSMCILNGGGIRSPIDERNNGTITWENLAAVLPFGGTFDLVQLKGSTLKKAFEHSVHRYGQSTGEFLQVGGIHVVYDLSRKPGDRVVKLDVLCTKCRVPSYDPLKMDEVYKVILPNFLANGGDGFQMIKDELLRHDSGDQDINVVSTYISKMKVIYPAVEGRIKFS


Legend:
cell-bound CD73 [1] = biological target: T1, cell-bound CD73; experiment: cell-based or functional assay
cell-bound CD73 [2] = biological target: T1, cell-bound CD73; experiment: cell-based or functional assay; remark: listed apart in the source
non-cell-bound CD73 = biological target: T2, non-cell-bound CD73; experiment: cell-based or functional assay
cell-bound CD73 [3] = biological target: T1, cell-bound CD73; experiment: cell-based or functional assay; remark: listed apart in the source
human CD73-His = biological target: T3, human CD73-His; experiment: SPR (ProteOn XPR36), antibody captured on Protein A/G, dimeric human CD73-His as analyte, avidity format, 1:1 Langmuir fit
Protocol: For the avidity format, the experiment was performed on a Bio-Rad ProteOn XPR36 instrument. Antibodies were captured via Protein A/G and the non-covalent dimeric antigens were flowed over the captured surface. The running buffer for this experiment and all dilutions were prepared in PBS-T-EDTA. The GLM sensor chip was normalized and pre-conditioned as per the manufacturer's recommendations. The sensor chip was activated with an equal mixture of EDC/s-NHS in the horizontal direction for 300 s at a flow rate of 30 μL/min and immobilized with recombinant Protein A/G (50 μg/ml in 10 mM acetate pH 4.5) in the horizontal direction for 300 s at a flow rate of 30 μL/min resulting in about 5000 RU of Protein A/G on the surface. The sensor chip was deactivated with 1M ethanolamine-HCl in the horizontal direction for 300 s at a flow rate of 30 μL/min. The sensor chip was regenerated with 18 s of 0.85% phosphoric acid at a flow rate of 100 μL/min 2 times horizontally and 2 times vertically.
About 300 RU of antibody was captured on the Protein A/G surface vertically for 60 s at a flow rate of 30 μL/min. The capture surface was stabilized by injecting PBS-T-EDTA for 60 s at a flowrate of 100 μL/min horizontally. The analyte (human CD73-His) was injected horizontally over the captured antibody for 600 s at a flow rate of 30 μL/min with a dissociation of 1200 s. The concentrations of human CD73-His were 0 nM, 3.125 nM, 6.25 nM, 12.5 nM, 25 nM and 50 nM. The surface was regenerated by injecting 0.85% phosphoric acid for 18 s at a flow rate of 100 μL/min one time horizontally and one time vertically.
The interspot (interactions with sensor surface) and blank (PBS-T-EDTA or 0 nM analyte) were subtracted from the raw data.

cell-bound CD73 [4] = biological target: T1, cell-bound CD73; experiment: cell-based or functional assay; remark: listed apart in the source
mouse CD73 = biological target: T4, mouse CD73; experiment: SPR, mouse CD73 compared with human CD73 (reference)
cell-bound CD73 [5] = biological target: T1, cell-bound CD73; experiment: cell-based or functional assay; remark: listed apart in the source
[6] = biological target: T5, recombinant human CD73 protein; experiment: cell-based or functional assay

Binder	% of max. adenosine inhibition, washed Colo-201 cells (cell-bound CD73 [1])	CD8 T cell proliferation [% of control], Donor A, 1 nM antibody (cell-bound CD73 [2])	CD8 T cell proliferation [% of control], Donor B, 1 nM antibody (cell-bound CD73 [2])	CD8 T cell proliferation [% of control], Donor C, 1 nM antibody (cell-bound CD73 [2])	CD8 T cell proliferation [% of control], Donor D, 1 nM antibody (cell-bound CD73 [2])	CD8 T cell proliferation [% of control], Donor E, 1 nM antibody (cell-bound CD73 [2])	CD8 T cell proliferation [% of control], Donor F, 1 nM antibody (cell-bound CD73 [2])	% of max. adenosine inhibition, Colo-201 culture supernatant (non-cell-bound CD73)	CD73 surface reduction [%] on Colo201 cells, 24 h, flow cytometry (cell-bound CD73 [3])	Kd (human CD73-His)	IFNγ release [fold change over control], Donor A, 1 nM antibody (cell-bound CD73 [4])	IFNγ release [fold change over control], Donor B, 1 nM antibody (cell-bound CD73 [4])	IFNγ release [fold change over control], Donor C, 1 nM antibody (cell-bound CD73 [4])	IFNγ release [fold change over control], Donor D, 1 nM antibody (cell-bound CD73 [4])	IFNγ release [fold change over control], Donor E, 1 nM antibody (cell-bound CD73 [4])	IFNγ release [fold change over control], Donor F, 1 nM antibody (cell-bound CD73 [4])	fold higher binding to human CD73 than to mouse CD73 (mouse CD73)	Max. adenosine inhibition [%] in Colo201 cells (cell-bound CD73 [5])	IC90 of inhibition of CD73 enzymatic function (luciferase-based assay) [6]
C1 (antibody, human IgG1, kappa, L234A L235A, V domains shown, Humanized monoclonal antibody; also called anti-CD73 antibody C1) VH: QVQLVQSGAEVKKPGDSVKVSCKASGYTFTTYWMHWVRQAPGQGLEWMGAIYPGFSDTTYSQKFKGKVTMTRDTSTSTVYMKLSSLRSEDTAVYYCARLLDYAMDYWGQGTLVTVSS VL: DIQMTQSPSSLSASVGDRVTITCRASQDIRSYLNWHQQKPGKAPKLLIWYTSRLHSGVPSRFSGSGSGTDYTLTISSLEPEDFATYFCQQGETLPWTFGQGTKLEIKR	79%	104%	86.7%	107%	99.5%	101%	84.2%	76%	20%	0.072 nM	20.9 fold	12 fold	51.3 fold	20.9 fold	12.8 fold	6.7 fold	96 fold	86%	0.49 nM
C4 (antibody, human IgG1, kappa, L234A L235A, V domains shown, Humanized monoclonal antibody; also called C04; inventive anti-CD73 antibody C4) VH: QVQLVQSGAEVKKPGDSVKVSCKASGYTFTTYWMHWVRQAPGQGLEWMGAIYPGLSDTTYNQKFKGKVTMTRDTSTSTVYMKLSSLRSEDTAVYYCARLLDYAMDYWGQGTLVTVSS VL: DIQMTQSPSSLSASVGDRVTITCRASQDIRSYLNWHQQKPGKAPKLLIWYTSRLHSGVPSRFSGSGSGTDYTLTISSLQPEDFATYFCQQGETLPWTFGQGTKLEIKR	82%	104%	70.3%	111%	98.5%	100%	92.6%	81%	15%	0.074 nM	20.2 fold	8.7 fold	35.2 fold	13.7 fold	14.1 fold	7.1 fold	120 fold	88%	0.24 nM
C3 (antibody, human IgG1, kappa, L234A L235A, V domains shown, Humanized monoclonal antibody; also called anti-CD73 antibody C3) VH: QVQLVQSGAEVKKPGDSVKVSCKASGYTFTTYWMHWVRQAPGQGLEWMGAIYPGLSDTTYSQKFKGKVTMTRDTSTSTVYMKLSSLRSEDTAVYYCARLLDYAMDYWGQGTLVTVSS VL: DIQMTQSPSSLSASVGDRVTITCRASQDIRSYLNWHQQKPGKAPKLLIWYTSRLHSGVPSRFSGSGSGTDYTLTISSLQPEDFATYFCQQGETLPWTFGQGTKLEIKR	81%	103%	80.2%	116%	99.3%	101%	91.3%	82%	16%	0.072 nM	19.9 fold	7.7 fold	31.9 fold	19 fold	14.2 fold	6.7 fold	117 fold	88%	0.32 nM
